Test results reported in US20070224188A1.

Molecular target: biotin-labeled soluble FcRn
Assay: FcRn ELISA pH 6.0

Substance | FcRn pH6.0 (% of wild type)
anti-CD20 IgG1 E283G (antibody) | 137
anti-CD20 IgG1 E283H (antibody) | 206
anti-CD20 IgG1 E283L (antibody) | 126
anti-CD20 IgG1 E283Q (antibody) | 117
anti-CD20 IgG1 E283S (antibody) | 143
anti-CD20 IgG1 E283T (antibody) | 143
anti-CD20 IgG1 E283W (antibody) | 117
anti-CD20 IgG1 E283Y (antibody) | 142
anti-CD20 IgG1 E293S (antibody) | 101
anti-CD20 IgG1 E293V (antibody) | 127
anti-CD20 IgG1 E318N (antibody) | 216
anti-CD20 IgG1 E318P (antibody) | 75
anti-CD20 IgG1 E380D (antibody) | 73
anti-CD20 IgG1 E380N (antibody) | 142
anti-CD20 IgG1 E380T (antibody) | 172
anti-CD20 IgG1 E382A (antibody) | 103
anti-CD20 IgG1 E382D (antibody) | 73
anti-CD20 IgG1 E382P (antibody) | 122
anti-CD20 IgG1 E382Q (antibody) | 162
anti-CD20 IgG1 E382R (antibody) | 165
anti-CD20 IgG1 E382T (antibody) | 172
anti-CD20 IgG1 E382W (antibody) | 172
anti-CD20 IgG1 E382Y (antibody) | 188

Substance | FcRn pH6.0 (% of wild type)
anti-CD20 IgG1 E430G (antibody) | 131
anti-CD20 IgG1 E430H (antibody) | 192
anti-CD20 IgG1 E430I (antibody) | 308
anti-CD20 IgG1 E430K (antibody) | 131
anti-CD20 IgG1 E430L (antibody) | 242
anti-CD20 IgG1 E430M (antibody) | 195
anti-CD20 IgG1 E430Q (antibody) | 320
anti-CD20 IgG1 E430R (antibody) | 249
anti-CD20 IgG1 E430W (antibody) | 11
anti-CD20 IgG1 G237E (antibody) | 93
anti-CD20 IgG1 G237R (antibody) | 56
anti-CD20 IgG1 G316F (antibody) | 34
anti-CD20 IgG1 G341D (antibody) | 52
anti-CD20 IgG1 G341E (antibody) | 50
anti-CD20 IgG1 G341F (antibody) | 52
anti-CD20 IgG1 G341N (antibody) | 53
anti-CD20 IgG1 G341P (antibody) | 127
anti-CD20 IgG1 G341R (antibody) | 78
anti-CD20 IgG1 G341S (antibody) | 55
anti-CD20 IgG1 G341T (antibody) | 68
anti-CD20 IgG1 G341V (antibody) | 69
anti-CD20 IgG1 G341W (antibody) | 76
anti-CD20 IgG1 G385P (antibody) | 101

Substance | FcRn pH6.0 (% of wild type)
anti-CD20 IgG1 H268K (antibody) | 86
anti-CD20 IgG1 H285N (antibody) | 202
anti-CD20 IgG1 H429F (antibody) | 77
anti-CD20 IgG1 H429M (antibody) | 83
anti-CD20 IgG1 I253A (antibody) | 0
anti-CD20 IgG1 I332E (antibody) | 86
anti-CD20 IgG1 I332F (antibody) | 108
anti-CD20 IgG1 I332G (antibody) | 94
anti-CD20 IgG1 I332H (antibody) | 129
anti-CD20 IgG1 I332K (antibody) | 146
anti-CD20 IgG1 I332M (antibody) | 128
anti-CD20 IgG1 I332Q (antibody) | 98
anti-CD20 IgG1 I332S (antibody) | 263
anti-CD20 IgG1 I332T (antibody) | 100
anti-CD20 IgG1 I332V (antibody) | 115
anti-CD20 IgG1 I377G (antibody) | 76
anti-CD20 IgG1 I377K (antibody) | 167
anti-CD20 IgG1 K248F (antibody) | 0
anti-CD20 IgG1 K248Q (antibody) | 38
anti-CD20 IgG1 K288N (antibody) | 162
anti-CD20 IgG1 K288P (antibody) | 119
anti-CD20 IgG1 K317T (antibody) | 49
anti-CD20 IgG1 K326W (antibody) | 93

Other lines, results leading:

FcRn pH6.0 (% of wild type) | Substance
143 | anti-CD20 IgG1 E283I (antibody)
246 | anti-CD20 IgG1 E283K (antibody)
95 | anti-CD20 IgG1 E283M (antibody)
119 | anti-CD20 IgG1 E283N (antibody)
136 | anti-CD20 IgG1 E283P (antibody)
282 | anti-CD20 IgG1 E283R (antibody)
304 | anti-CD20 IgG1 E318T (antibody)
114 | anti-CD20 IgG1 E318V (antibody)
152 | anti-CD20 IgG1 E380A (antibody)
230 | anti-CD20 IgG1 E380S (antibody)
222 | anti-CD20 IgG1 E382F (antibody)
135 | anti-CD20 IgG1 E382H (antibody)
131 | anti-CD20 IgG1 E382I (antibody)
153 | anti-CD20 IgG1 E382K (antibody)
126 | anti-CD20 IgG1 E382L (antibody)
135 | anti-CD20 IgG1 E382M (antibody)
137 | anti-CD20 IgG1 E382N (antibody)
151 | anti-CD20 IgG1 E382S (antibody)
173 | anti-CD20 IgG1 E382V (antibody)
179 | anti-CD20 IgG1 E430A (antibody)

FcRn pH6.0 (% of wild type) | Substance
44 | anti-CD20 IgG1 E430D (antibody)
218 | anti-CD20 IgG1 E430F (antibody)
171 | anti-CD20 IgG1 E430N (antibody)
86 | anti-CD20 IgG1 E430P (antibody)
183 | anti-CD20 IgG1 E430S (antibody)
137 | anti-CD20 IgG1 E430T (antibody)
281 | anti-CD20 IgG1 E430V (antibody)
126 | anti-CD20 IgG1 E430Y (antibody)
158 | anti-CD20 IgG1 F423N (antibody)
88 | anti-CD20 IgG1 G236F (antibody)
101 | anti-CD20 IgG1 G236R (antibody)
76 | anti-CD20 IgG1 G236Y (antibody)
78 | anti-CD20 IgG1 G237K (antibody)
91 | anti-CD20 IgG1 G237N (antibody)
131 | anti-CD20 IgG1 G316K (antibody)
65 | anti-CD20 IgG1 G341H (antibody)
36 | anti-CD20 IgG1 G341I (antibody)
67 | anti-CD20 IgG1 G341K (antibody)
54 | anti-CD20 IgG1 G341L (antibody)
79 | anti-CD20 IgG1 G341M (antibody)

FcRn pH6.0 (% of wild type) | Substance
72 | anti-CD20 IgG1 G341Q (antibody)
54 | anti-CD20 IgG1 G341Y (antibody)
98 | anti-CD20 IgG1 G385E (antibody)
68 | anti-CD20 IgG1 H268D (antibody)
126 | anti-CD20 IgG1 H268E (antibody)
61 | anti-CD20 IgG1 H429A (antibody)
96 | anti-CD20 IgG1 I332A (antibody)
78 | anti-CD20 IgG1 I332D (antibody)
127 | anti-CD20 IgG1 I332L (antibody)
92 | anti-CD20 IgG1 I332N (antibody)
114 | anti-CD20 IgG1 I332R (antibody)
123 | anti-CD20 IgG1 I332W (antibody)
93 | anti-CD20 IgG1 I332Y (antibody)
98 | anti-CD20 IgG1 I377P (antibody)
15 | anti-CD20 IgG1 K248A (antibody)
34 | anti-CD20 IgG1 K248P (antibody)
30 | anti-CD20 IgG1 K248W (antibody)
145 | anti-CD20 IgG1 K317P (antibody)
94 | anti-CD20 IgG1 K439E (antibody)
